Data: patent US20140363423A1 (NATIONAL TAIWAN UNIVERSITY, published 2014)
Several values for one entry are separate records, joined by “and”; a condition that tells them apart may be missing. Identical values can stand only once.

T1: platelet glycoprotein VI (GPVI) on washed human platelets (human), Q9HCN6
T1 chain: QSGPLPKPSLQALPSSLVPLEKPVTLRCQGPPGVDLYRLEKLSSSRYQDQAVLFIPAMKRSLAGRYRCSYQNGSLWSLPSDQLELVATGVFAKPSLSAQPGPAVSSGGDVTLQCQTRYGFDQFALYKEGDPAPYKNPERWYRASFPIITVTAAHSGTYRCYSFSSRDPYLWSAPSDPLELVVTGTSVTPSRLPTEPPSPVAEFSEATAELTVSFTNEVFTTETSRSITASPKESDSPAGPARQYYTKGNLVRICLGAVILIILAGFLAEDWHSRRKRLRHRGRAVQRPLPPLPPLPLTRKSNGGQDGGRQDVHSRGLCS

T2: platelet glycoprotein VI (GPVI) on washed human platelets (human, UniProt Q9HCN6 21-339)
T2 sequence: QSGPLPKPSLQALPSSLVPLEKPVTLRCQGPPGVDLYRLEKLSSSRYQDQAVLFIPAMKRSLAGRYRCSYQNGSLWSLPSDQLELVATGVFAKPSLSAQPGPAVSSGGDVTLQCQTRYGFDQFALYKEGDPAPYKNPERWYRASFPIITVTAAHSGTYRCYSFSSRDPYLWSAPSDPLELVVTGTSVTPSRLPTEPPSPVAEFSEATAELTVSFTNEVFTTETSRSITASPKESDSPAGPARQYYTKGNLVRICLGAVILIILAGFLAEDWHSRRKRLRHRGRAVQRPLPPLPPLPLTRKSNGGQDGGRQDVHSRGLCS


Legend:
[1] = target: platelet glycoprotein VI (GPVI) on washed human platelets (human) (UniProt Q9HCN6); experiment: cell-based or functional assay
[2] = target: T1, platelet glycoprotein VI (GPVI) on …; experiment: cell-based or functional assay
[3] = target: T2, platelet glycoprotein VI (GPVI) on …; experiment: cell-based or functional assay
[4] = target: T2, platelet glycoprotein VI (GPVI) on …; experiment: flow cytometry on human platelets; inhibition of 6B12 (anti-GPVI) binding

Molecule | Inhibition of the collagen-induced aggregation (%) at 100 µg/ml [1] [%] | Inhibition of the collagen-induced aggregation (%) at 100 µg/ml [3] [%] | further results
Tro-α6 M117A mutant hexapeptide CKWANV | 52.9 |  | 
Tro-α6 W116A mutant hexapeptide CKAMNV | 12.3 |  | 
d-form Tro-α6 hexapeptide C(dK)WM(dN)V | 89.4 |  | IC50, inhibition of the collagen-induced aggregation [1]: 6.82 µg/ml and 8.75 µM
GFCKWMNVAC (modifications not checked) [decapeptide of trowaglerix α subunit (Troα10, …)] |  |  | IC50, inhibition of the collagen-induced aggregation [2]: 30.4 µM; Inhibition of the collagen-induced aggregation (%) at 100 µg/ml [2]: 93.8%; inhibition on collagen-induced aggregation [2]: 60%
CKWMNV [hexapeptide of trowaglerix α subunit (Troα6, CKWMNV)] |  | 44.3 | IC50, inhibition of the collagen-induced aggregation [3]: 83.4 µg/ml and 107 µM
RKWVNY [Agg-α6 (Aggretin) hexapeptide RKWVNY] |  | 21.7 | 
RKWFVA [CVX-α6 (Convulxin) hexapeptide RKWFVA] |  | 28.7 | 
NQWLSR [Agk--β6 hexapeptide NQWLSR] |  | 24.6 | 
CSLLKKETGFRKWFVASCIGKIPFVCKFPPQC [recombinant convulxin α subunit C-terminal (CVX α C-terminal 104-135)] |  |  | binding result [4]: binds
EEFECLISRTFDNQWLSAPCSDTYSFVCKFEA [recombinant convulxin β subunit C-terminal (CVX β C-terminal 94-125)] |  |  | binding result [4]: binds
